Assay results from the nanobody polyreactivity screen of Harvey et al. (2022).

Test: yeast display, Sf9 membrane polyspecificity reagent, FACS + sequencing; frameworks hold sequencing errors
In short: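 Using colony PCR, genes from sorted yeast display clones were amplified, then sequenced on MiSeq at 2 × 250 and filtered by CDR length. The clones had been stained with 10% biotinylated, detergent-solubilized Sf9 membrane reagent for 1 hour at 4 °C and sorted by FACS into low and high (top ~1%) gates on anti-HA and streptavidin fluorescence. Polyreactivity labels come from the gate of origin.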

Sequence | polyreactivity (PSR sort gate)
QVQLVESGGGLVQAGGSLRLSCAASGRIFYGYAMGWYRQAPGKERELVAAITYIGGPYYADSVKGRFTISRDNAKNTVYFQMNSQKPEDTAVYYCATEPFYTYGYYTYPYWYDYWGQGTQVTVSS | low polyreactivity
QVQLVESGGGLVQAGGSLRLSCAASGRIFYGYTMGWYRQAPGKERELVASITIRGSRTYYADSVKGRFTISRDNAKNTVYLQMNSLKPEDTAVYSCAADFVPARTVHRYDYWGQGTQVTVSS | low polyreactivity
QVQLVESGGGLVQAGGSLRLSCAASGRIFYHNAMGWYRQAPGKERELVAAIRWSGGSTYYADSEKGRFTISRDNAKNTVYLLMKSLKPEDTAVYYWATDVPIREIDEFGYWGQGTQVTVSS | low polyreactivity
QVQLVESGGGLVQAGGSLRLSCAASGRIFYHYAMGWYRQAPGKERELVAAITSSGAGTYYADSVKGRFTISRDNAKNTVYLPMNSLKPEDTAVYYCAARRYAWLHSYDMYYWGHGTQVTVSS | high polyreactivity
QVQLVESGGGLVQAGGSLRLSCAASGRIFYHYAMGWYRQAPGKERELVATINSSGTSTYYADSVKGRFTISRDNAKNTVYLQMNSLKPEDTALYYCAASTYNKMYYWGQGTHVTVSS | high polyreactivity
QVQLVESGGGLVQAGGSLRLSCAASGRIFYINAMGWYRQAPGKEWELVAGITRSGGSTYYADSVKGRFTISRDNAKNTVYLQMNSLKPEDTAVYYCNAGRYARQHSRYDYWGQGTQVTVSS | high polyreactivity
QVQLVESGGGLVQAGGSLRLSCAASGRIFYIYAKGWYRPAPGKERELVAASTNGGSTNYAHSVKGRFTISRDNAKNTVYLQMNSLKPEDTEVYYCATDYVGYSFGMYYWGEGTQVTVSS | low polyreactivity
QVQLVESGGGLVQAGGSLRLSCAASGRIFYLYAMGWYRQAPGKERELVASINSGDSTHYADSVKGRFTISRDNAKNTVYLQMNSLKPEDTAVYYCATRRYTRSRWYDYWGQGTQVTVSS | low polyreactivity
QVQLVESGGGLVQAGGSLRLSCAASGRIFYNYAMGWSRQAPGKERELVAAISGSGGSTYYADSVKGRFTISRDNAKNTVYLQMNSLKPEDTAVYYCSTSGPQYYSRNFDYWGQGTQVTVSS | low polyreactivity
QVQLVESGGGLVQAGGSLRLSCAASGRIFYPNAMGWYRQAPGQERELVAAISLSAGSTYYADSVKGRFTISRDNAKNTVSLQMNSLKPEDTAVYYCATQGNSPRGTRRYGYWGQGTQVTVSS | high polyreactivity
QVQLVESGGGLVQAGGSLRLSCAASGRIFYPYAMGWYRQAPGIERELVAAIDKGGGSTYYADSVKGRFSISRDNAKNTVYVQMNSLKPEDTAVYYCAAGWEYPYDYWGQGTQVTVSS | low polyreactivity
QVQLVESGGGLVQAGGSLRLSCAASGRIFYPYAMGWYRQAPGKERELVAAINWSGDRTYYADSVKGRFTISRDNAKNTVYLQMNSLKPEDTAVYYCAAVYFTRSSGRRYDYWGQGTQVTVSS | high polyreactivity
QVQLVESGGGLVQAGGSLRLSCAASGRIFYPYAMGWYRQAPGKERELVAAIRWGGGSTYADSVKGRFTISRDNAKNTVYLQMNSLKPEDTAVYYCAAKSYPYYGYPGAYDYWGQGTQVTVSS | low polyreactivity
QVQLVESGGGLVQAGGSLRLSCAASGRIFYPYAMGWYRQAPGKERELVAAITSGGSTYYADSVKGRFTISRDNAKNTVYFQMNSLKPEDTAVYYCAADVVDLYLLDYWGQGTQVTVSS | low polyreactivity
QVQLVESGGGLVQAGGSLRLSCAASGRIFYPYAMGWYRQAPGKERELVARITWTTTSTYYADSVKGRFTISRDNAKNTVYLQMNSLKPDDTAVYYCAADGRVRTWGNLRDYWGQGTQVTVSS | high polyreactivity
QVQLVESGGGLVQAGGSLRLSCAASGRIFYPYAMGWYRQAPGTERELVAAISYSGGSTFYADSVKGRFTISRDNAKNTVYFQMNSLKPEDTAVYFCNKVWFARYWYRDFDYWGQGTQVTVSS | high polyreactivity
QVQLVESGGGLVQAGGSLRLSCAASGRIFYPYSMGWYRQAPGKERELVAAIRRSGVDTYYADSVKGRFTISRDNAKNTVYLQMNSLKPEDTAVYYCAADPYWFFPHYDSWGQGTQVTVSS | low polyreactivity
QVQLVESGGGLVQAGGSLRLSCAASGRIFYPYTMGWYRQAPGKERELVAAISSGSRTNYADSVKGRFTISRDNAKNTVYLQMNSLKPEDTAVYYCAAAAYSYKRVYQTFTFGYWGQGTQVTVSS | high polyreactivity
QVQLVESGGGLVQAGGSLRLSCAASGRIFYPYVMGWYRQAPGKERELVAAISDSTGSTYYADSVKGRFTISRDNAKNTVYLQMNSLKPEDTAVYYCAAGWFYATYWRFYYWGQGTLVTVSS | low polyreactivity
QVQLVESGGGLVQAGGSLRLSCAASGRIFYQNAMGWSRPAPGKERELVAGITRGGSTYYADSVKGRFTISRDNAKNTVYLQMNSLKPEDTAVYYCAVAFWRTKWYDYWGQGTQVTVSS | low polyreactivity
QVQLVESGGGLVQAGGSLRLSCAASGRIFYQNAMGWYRPAPGKERELVADISSGGSTYYADSVKGRFTISRDNAKNTVYLQMNSVKPEDTAVYYCHTPSGPGTVGSYRRKWYGYWGQGTQVTVSS | low polyreactivity
QVQLVESGGGLVQAGGSLRLSCAASGRIFYQYAMGWYRQAPGKEREFVAAISISGTSTYADSVKGRFTISRDNAKNTVYLQMNSLIPEDTAFYYCNVGPRAGWYRSNYDYWGQGTQVTVSS | low polyreactivity

Sequence | polyreactivity (PSR sort gate)
QVQLVESGGGLVQAGGSLRLSCAASGRIFYQYVMGWYRQAPGKDRELVAAISRRGGSTYYADSVKGRFTISRDNAKNTVYLQMNSLKPEDTAVYYCAARRRYRRHRYDYWGQGTQVTVSS | high polyreactivity
QVQLVESGGGLVQAGGSLRLSCAASGRIFYRNAMGWYRQAPAKERELVAAISWSGGRTYYADSVKGRFTISRDNAKNTVYLQMNSLKPEDTAVYYCNARTGYYTGQYDYWGQGTQVTVSS | high polyreactivity
QVQLVESGGGLVQAGGSLRLSCAASGRIFYRNAMGWYRQAPGKEREFVAAISSGGSTYYADSVKGRFTISRDNAKNTVYLQMNSLKPEDTAVYYCATRSPERRVYYTYSGLFDYWGQGTQVTVSS | high polyreactivity
QVQLVESGGGLVQAGGSLRLSCAASGRIFYRNVMGWYRQAPGKERELVAAISYRGGSTSYADSVKGRFTISRDNAKNTVYLQMYSLKPEDTAVYYCNAGRIRPAYSDREYWGQGTQVTVSS | low polyreactivity
QVQLVESGGGLVQAGGSLRLSCAASGRIFYRYALGWYRQAPGKERELVAVITSSGGRTYYADSVKGRFTISRDNAKNTVYLQMNSLKPEDTAVYYCAATPVGSHYGNYYWGQGTQVTVSS | high polyreactivity
QVQLVESGGGLVQAGGSLRLSCAASGRIFYRYAMGWSRPAHGKERELVASISGSGGRTYYADSVKGRFTISRDNAKNTVYLQMNSLKPEDTAVSYCAARIRPSYDWGQGTQVTVSS | high polyreactivity
QVQLVESGGGLVQAGGSLRLSCAASGRIFYRYAMGWYRQAPGKERELVAAISSGGSTYADSVKGRFTISRDNAKNTVYLQMNSLKPEDTAVYFCAARLYTYPKGKYWGQGTQVTVSS | high polyreactivity
QVQLVESGGGLVQAGGSLRLSCAASGRIFYRYAMGWYRQAPGKERELVATISSGGSTNYADSVKGRFTISRDNAKNTVYLQMNSLKPEDTAVYYCARQSLRYSYVSRDYWGLGTQVTVSS | low polyreactivity
QVQLVESGGGLVQAGGSLRLSCAASGRIFYRYAMGWYRQAPGKERELVATITNGGSTNYADSVKGRFTISRDNAMITVYLQMNSLKPEDTAVYYCAASRSRYSVNCYNYWGQGTQVTLSS | high polyreactivity
QVQLVESGGGLVQAGGSLRLSCAASGRIFYSNDMGWYRQAPGKERELVAGINYDGGSTYYADSVKGRFTISRDNPKNTVYLQINSLKPEDTAVNYCNVRQVGWFNTPGDYWGQGTQVTVSS | low polyreactivity
QVQLVESGGGLVQAGGSLRLSCAASGRIFYSYAMGWYRQAPGKERELVAAISFSVGSTYYADSVKGRFTISRDNAKNTVYLQMNSLKPEDTAVYYCATGWYYTSTTYRSSDFDYWGQGTQVTVSS | low polyreactivity
QVQLVESGGGLVQAGGSLRLSCAASGRIFYSYAMGWYRQAPGKERELVAAITESGGSTNYADSVKGRFTISRDNAKNTVYLQMNSLKPEDTEVYYCNARYKLTFNLYNYWGQGTQETVSS | low polyreactivity
QVQLVESGGGLVQAGGSLRLSCAASGRIFYSYAMGWYRQAPGKERELVATISSAGSTYYADSVKGRFTISRDNAKNTVYLQMNSLKPEDTAVYYCAARRPRRYGFWGQGTQVTVSS | high polyreactivity
QVQLVESGGGLVQAGGSLRLSCAASGRIFYSYARGWYRQAPGKERELVAAITESGGSTNYADSVKGRFTISRDNAKNSVYLQMNSLKPEDSAVYYCNARYKLTFNLYNYRGQGTQVTVSS | low polyreactivity
QVQLVESGGGLVQAGGSLRLSCAASGRIFYSYGMGWYRQAPGKERELVATISIGGSTNYADSVKGRFTISRDNAKNTVYLQMNSLKPEDTAVYYCAARGGTLYSTRSYGYWGQGTQVTVSS | high polyreactivity
QVQLVESGGGLVQAGGSLRLSCAASGRIFYSYTMGWYRQAPGKEREMVAGINRSVGSTYYADSVKGRFTISRDNAKNTVYLQMNSLKPEDTAVYYCAAGSRRRSYYTFSSVHGHYYWGQGTQVTVSS | high polyreactivity
QVQLVESGGGLVQAGGSLRLSCAASGRIFYTYAKGLSRQAPRKERELVATISNSGGSTYYADSVKGRFTISRDNAKNTVYLQMNSLKPEDTAVYSCAKDERAAPSASYAYYYWGQGTLVTVSS | low polyreactivity
QVQLVESGGGLVQAGGSLRLSCAASGRIFYVYAMGRYRQAPGKERELVAAINWSGDSTYYADSVKGRFTISRDNAKNTVYLQLNSLKPEDTAVYYCARARPTGYNYWGQGTQVTVSS | high polyreactivity
QVQLVESGGGLVQAGGSLRLSCAASGRIFYVYAMGWYRQAPGKERELVADITRDGNTNYADSVKGRFTISRDNAKNTVYLQMNSLKPEDTAVYYCAAGGYPGTTYYGYDYWGQGTQVTVSS | low polyreactivity
QVQLVESGGGLVQAGGSLRLSCAASGRIFYVYGMGWYRQAPGKERELVAAISKRGDNTYYADSVKGRFTISRDNAKNTVYLQMNSLKPEDTAVYYCAAKYNYSPRAGFNFWGQGTQVTVSS | high polyreactivity
QVQLVESGGGLVQAGGSLRLSCAASGRIFYWNTMGWYRQAPGKEREFVAAILSRGDTTYYADSVKGRFTISRDNAKNTVYLQMNSLKPEDTAVYYCAARPVRYHYVPSMYYWGQGTQVTVSS | high polyreactivity
